Measured values reported in patent publication US7063946B2, “Methods, reagents, kits and apparatus for protein function analysis” (Meso Scale Technologies, LLC., priority 2001, dated 2006).

Assays:
[1] = biological target: T1, IkBa peptide [SEQ ID No. 1] (Homo sapiens, UniProt P25963); assay: Phosphopeptide binding assay, peptide-BSA coated IPR plate
T1 construct: two phosphoserines in the DSGLDS motif (chemical modification); purchased New England Peptide, Fitchburg Mass; host or cells: chemical synthesis
From the text: (§1) A phosphopeptide derived from the IkBa degradation motif (SEQ ID NO: 1) and a phosphopeptide derived from c-Myc (SEQ ID NO: 4) were chemically synthesized (New England Peptide, Fitchburg Mass.) with the following sequences respectively:
A maleimide pre-activated BSA (Pierce, Pittsburgh Pa.), which contains estimated 17 active maleimide groups on the protein surface, was used as the protein carrier, and was supplied as a lyophilized preparation. Coupling of the IkBa peptide (SEQ ID NO: 1) to the pre-activated BSA was carried out with 2 mg BSA (30 nmol) and 17 equivalents of the 25 residue phosphopeptide in 400 μl PBS. The reaction was terminated with 2 mM […] after incubation at room temperature for 30 minutes. The peptide:BSA conjugate was then purified on PD-10 gel filtration column to remove uncoupled peptide and analyzed with SDS PAGE to monitor the coupling reaction. […] After coupling and purification, the column fractions containing the peptide:BSA conjugates were pooled and the protein concentration of the pooled samples was determined by BCA assay (Pierce, Pittsburgh Pa.). NaN3, (0.02%) was added to the final peptide:BSA conjugate sample for long term storage at 4° C. […]
Two βTRCP genes, βTRCP1 and βTRCP2, are present in the human genome on chromosome 5 and 10, respectively. […] The ECL signals were measured using an imaging plate reader (IPR).

[2] = biological target: T2, Myc peptide (SEQ ID NO: 4) (Homo sapiens, UniProt P01106); assay: 96-well screen for phosphopeptide binding proteins, 7-spot IPR plates; conditions: two steps of normalization; top 9 clones
T2 construct: phosphothreonine (T58) and phosphoserine (S62) (chemical modification); purchased New England Peptide, Fitchburg Mass; host or cells: chemical synthesis
Description: A screen was conducted using 7-spot IPR plates. The 7 spot NPT IPR plates are described in more detail in copending Provisional Application No. 60/301,932 (entitled “Assay Plates, Reader Systems and Methods for Luminescence Test Measurements”, filed on Jun. 29, 2001, hereby incorporated by reference) and particularly in the description of Plate Type D in Example 6.1 (NPT IPR plate) and U.S. application Ser. Nos. 10/185,274 and 10/185,363, filed Jun. 28, 2002, each hereby incorporated by reference. These plates consist of a 96 wells with 7 zones (spots) for the immobilization of proteins or other reagents. Each spot was coated with BSA conjugated to either a single phosphopeptide or multiple phosphopeptides.
The plates were prepared essentially as described in example 12. The seven spots supported, respectively, the following BSA conjugates IkB, pY992, pY1068, pY1148, Myc, “A”, and “6-P”. […]
For the assay, 4 ul from TnT reaction product described above were added to the coated plate containing 50 μl of binding buffer supplemented with 50 ng/well Ru-Streptavidin. […] The ECL signals were measured using an imaging plate reader (IPR). The raw data from the IPR reader was then normalized using two steps of normalization. […] These 50 lowest values were averaged and divided into each signal for that spot to generate a signal value which could be compared readily between the peptide-conjugate spots. […]

[3] = biological target: T3, c-Myc peptide [SEQ ID No. 4] (Homo sapiens, UniProt P01106); assay: Phosphopeptide binding assay, peptide-BSA coated IPR plate
T3 construct: phosphothreonine (T58) and phosphoserine (S62) (chemical modification); purchased New England Peptide, Fitchburg Mass; host or cells: chemical synthesis
Description: as §1
To prepare IPR plates for use in the assay, approximately 2.4 pmol BSA, 1.2 pmole IκBα-24pp peptide-BSA conjugate or 1.2 pmole of Myc-p58Tp62S peptide-BSA conjugate in 2.5 μl were deposited on the carbon working electrode surface in a single well of a 96-well plate. At this stage, the plates were dried then used or stored under desiccated condition. A few hours prior to usage, the plates were rehydrated and blocked with 3% BSA, in PBS.
Two βTRCP genes, βTRCP1 and βTRCP2, are present in the human genome on […], respectively. The coding sequence of these two genes shares over 90% identity and several full-length cDNAs of which are available as EST clones from Incyte (Palo Alto, Calif.) IMAGE #3491843 and 4237375. Also included were three other non specific EST clones as controls (Incyte, Palo alto, Calif.). […] These DNAs were used to produce the βTRCP protein and proteins encoded by the other DNAs as described in the Example 7. Proteins were transferred into wells of the peptide-coated and BSA-blocked IPR plates. […] The ECL signals were measured using an imaging plate reader (IPR).

EGFR = biological target: T4, EGFR (Homo sapiens, UniProt P00533); assay: EGFR binding assay, bound EGFR detected with TAG labeled anti-EGFR
T4 construct: autophosphorylated tyrosines (self-phosphorylated with ATP before use); purchased Sigma Chemical Co, MO

T3 sequence (P01106 with tags, fused parts or gaps limits assumed): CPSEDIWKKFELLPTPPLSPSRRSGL
T1 sequence (P25963 with tags, fused parts or gaps limits assumed): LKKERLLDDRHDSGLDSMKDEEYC

Average ECL signal, IkBa peptide [SEQ ID No. 1] [1]	normalized ECL signal, Myc spot [2]	Average ECL signal, c-Myc peptide [SEQ ID No. 4] [3]	ECL signal (EGFR; +EGFR)	ECL signal (EGFR; no EGFR)	Molecule
21501	10	896	–	–	4237375: IMAGE clone protein: βTRCP2 (protein) MEPDSVIEDKTIELMCSVPRSLWLGCANLVESMCALSCLQSMPSVRCLQISNGTSSVIVSRKRPSEGNYQKEKDLCIKYFDQWSESDQVEFVEHLISRMCHYQHGHINSYLKPMLQRDFITALPEQGLDHIAENILSYLDARSLCAAELVCKEWQRVISEGMLWKKLIERMVRTDPLWKGLSERRGWDQYLFKNRPTDGPPNSFYRSLYPKIIQDIETIESNWRCGRHNLQRIQCRSENSKGVYCLQYDDEKIISGLRDNSIKIWDKTSLECLKVLTGHTGSVLCLQYDERVIVTGSSDSTVRVWDVNTGEVLNTLIHHNEAVLHLRFSNGLMVTCSKDRSIAVWDMASATDITLRRVLVGHRAAVNVVDFDDKYIVSASGDRTIKVWSTSTCEFVRTLNGHKRGIACLQYRDRLVVSGSSDNTIRLWDIECGACLRVLEGHEELVRCIRFDNKRIVSGAYDGKIKVWDLQAALDPRAPASTLCLRTLVEHSGRVFRLQFDEFQIISSSHDDTILIWDFLNVPPSAQNETRSPSRTYTYISR
–	–	–	30,389	2,271	4419252: IMAGE clone protein: PLCγ (protein) MAGAASPCANGCGPGAPSDAEVLHLCRSLEVGTVMTLFYSKKSQRPERKTFQVKLETRQITWSRGADKIEGAIDIREIKEIRPGKTSRDFDRYQEDPAFRPDQSHCFVILYGMEFRLKTLSLQATSEDEVNMWIKGLTWLMEDTLQAPTPLQIERWLRKQFYSVDRNREDRISAKDLKNMLSQVNYRVPNMRFLRERLTDLEQRSGDITYGQFAQLYRSLMYSAQKTMDLPFLEASTLRAGERPELCRVSLPEFQQFLLDYQGELWAVDRLQVQEFMLSFLRDPLREIEEPYFFLDEFVTFLFSKENSVWNSQLDAVCPDTMNNPLSHYWISSSHNTYLTGDQFSSESSLEAYARCLRMGCRCIELDCWDGPDGMPVIYHGHTLTTKIKFSDVLHTIKEHAFVASEYPVILSIEDHCSIAQQRNMAQYFKKVLGDTLLTKPVEISADGLPSPNQLKRKILIKHKKLAEGSAYEEVPTSMMYSENDISNSIKNGILYLEDPVNHEWYPHYFVLTSSKIYYSEETSSDQGNEDEEEPKEVSSSTELHSNEKWFHGKLGAGRDGRHIAERLLTEYCIETGAPDGSFLVRESETFVGDYTLSFWRNGKVQHCRIHSRQDAGTPKFFLTDNLVFDSLYDLITHYQQVPLRCNEFEMRLSEPVPQTNAHESKEWYHASLTRAQAEHMLMRVPRDGAFLVRKRNEPNSYAISFRAEGKIKHCRVQQEGQTVMLGNSEFDSLVDLISYYEKHPLYRKMKLRYPINEEALEKIGTAEPDYGALYEGRNPGFYVEANPMPTFKCAVKALFDYKAQREDELTFIKSAIIQNVEKQEGGWWRGDYGGKKQLWFPSNYVEEMVNPVALEPEREHLDENSPLGDLLRGVLDVPACQIAIRPEGKNNRLFVFSISMASVAHWSLDVAADSQEELQDWVKKIREVAQTADARLTEGKIMERRKKIALELSELVVYCRPVPFDEEKIGTERACYRDMSSFPETKAEKYVNKAKGKKFLQYNRLQLSRIYPKGQRLDSSNYDPLPMWICGSQLVALNFQTPDKPMQMNQALFMTGRHCGYVLQPSTMRDEAFDPFDKSSLRGLEPCAISIEVLGARHLPKNGRGIVCPFVEIEVAGAEYDSTKQKTEFVVDNGLNPVWPAKPFHFQISNPEFAFLRFVVYEEDMFSDQNFLAQATFPVKGLKTGYRAVPLKNNYSEDLELASLLIKIDIFPAKENGDLSPFSGTSLRERGSDASGQLFHGRAREGSFESRYQQPFEDFRISQEHLADHFDSRERRAPRRTRVNGDNRL
